For three molecules, Kd, binding result and EC50 results are on record in patent publication US20250289897A1 (Eli Lilly, published 2025).

Test [1] deals with T1, human LEPR-ECD-His (human, UniProt P48357 22-839).
T1 sequence: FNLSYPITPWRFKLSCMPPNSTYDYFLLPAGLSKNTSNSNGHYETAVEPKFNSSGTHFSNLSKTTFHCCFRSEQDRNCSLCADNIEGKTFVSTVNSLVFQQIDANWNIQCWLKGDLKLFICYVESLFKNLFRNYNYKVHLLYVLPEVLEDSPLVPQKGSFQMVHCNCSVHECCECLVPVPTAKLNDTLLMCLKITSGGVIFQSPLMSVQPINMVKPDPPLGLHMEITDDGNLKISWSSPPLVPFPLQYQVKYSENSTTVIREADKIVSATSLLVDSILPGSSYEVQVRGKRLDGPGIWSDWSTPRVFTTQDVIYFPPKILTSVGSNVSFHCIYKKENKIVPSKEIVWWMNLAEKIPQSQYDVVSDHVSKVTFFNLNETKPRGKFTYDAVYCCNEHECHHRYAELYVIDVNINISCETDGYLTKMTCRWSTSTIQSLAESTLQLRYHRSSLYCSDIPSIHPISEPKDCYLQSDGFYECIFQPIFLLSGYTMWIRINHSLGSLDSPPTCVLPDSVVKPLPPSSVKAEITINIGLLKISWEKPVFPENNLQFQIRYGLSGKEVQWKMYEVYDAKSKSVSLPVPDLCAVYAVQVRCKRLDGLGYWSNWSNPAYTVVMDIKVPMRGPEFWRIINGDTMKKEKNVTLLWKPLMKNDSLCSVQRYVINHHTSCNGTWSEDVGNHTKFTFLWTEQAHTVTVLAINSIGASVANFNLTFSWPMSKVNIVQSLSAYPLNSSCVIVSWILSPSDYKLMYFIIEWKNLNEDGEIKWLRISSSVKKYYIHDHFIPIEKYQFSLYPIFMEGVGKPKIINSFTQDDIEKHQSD
As to the kind of experiment: SPR (Biacore T200), antibody captured on Protein A/G chip, His-tagged LEPR-ECD as analyte, 1:1 fit; mean n=3, SD 2.2E-9.

In test [2] the target is T2, Human C1q (MS Biomedical) (human, UniProt P02745 23-245; P02746 28-253; P02747 29-245).
T2 construct: the three subunits are from general knowledge; also called complement component C1q; Clq
Briefly: C1q ELISA, plate coated with the antibody at 0.19-10 ug/mL, human C1q added at 10 ug/mL, sheep anti-human C1q-HRP detection, OD450. In general terms: In an ELISA, binding on a coated surface is turned into a signal by an enzyme label.

Test [3] addresses T3, cynomolgus monkey LEPR, full length, on HEK293-STAT3Luc-cmLepR2 cells (Macaca fascicularis).
T3 construct: whole, on cells; also called cyno-LEPR; Macaca fascicularis LEPR
As to the kind of experiment: flow cytometry on live HEK293-STAT3Luc-cmLepR2 cells, AF647 anti-human IgG; average of 4 runs, SD 0.7. For orientation: In flow cytometry, cells or beads pass a laser one at a time.

Test [4] addresses T4, human LEPR, full length, on HEK293-STAT3Luc-hLepR1 cells (Homo sapiens, UniProt P48357 22-1165).
T4 construct: also called human LEPR on live cell surface
T4 sequence: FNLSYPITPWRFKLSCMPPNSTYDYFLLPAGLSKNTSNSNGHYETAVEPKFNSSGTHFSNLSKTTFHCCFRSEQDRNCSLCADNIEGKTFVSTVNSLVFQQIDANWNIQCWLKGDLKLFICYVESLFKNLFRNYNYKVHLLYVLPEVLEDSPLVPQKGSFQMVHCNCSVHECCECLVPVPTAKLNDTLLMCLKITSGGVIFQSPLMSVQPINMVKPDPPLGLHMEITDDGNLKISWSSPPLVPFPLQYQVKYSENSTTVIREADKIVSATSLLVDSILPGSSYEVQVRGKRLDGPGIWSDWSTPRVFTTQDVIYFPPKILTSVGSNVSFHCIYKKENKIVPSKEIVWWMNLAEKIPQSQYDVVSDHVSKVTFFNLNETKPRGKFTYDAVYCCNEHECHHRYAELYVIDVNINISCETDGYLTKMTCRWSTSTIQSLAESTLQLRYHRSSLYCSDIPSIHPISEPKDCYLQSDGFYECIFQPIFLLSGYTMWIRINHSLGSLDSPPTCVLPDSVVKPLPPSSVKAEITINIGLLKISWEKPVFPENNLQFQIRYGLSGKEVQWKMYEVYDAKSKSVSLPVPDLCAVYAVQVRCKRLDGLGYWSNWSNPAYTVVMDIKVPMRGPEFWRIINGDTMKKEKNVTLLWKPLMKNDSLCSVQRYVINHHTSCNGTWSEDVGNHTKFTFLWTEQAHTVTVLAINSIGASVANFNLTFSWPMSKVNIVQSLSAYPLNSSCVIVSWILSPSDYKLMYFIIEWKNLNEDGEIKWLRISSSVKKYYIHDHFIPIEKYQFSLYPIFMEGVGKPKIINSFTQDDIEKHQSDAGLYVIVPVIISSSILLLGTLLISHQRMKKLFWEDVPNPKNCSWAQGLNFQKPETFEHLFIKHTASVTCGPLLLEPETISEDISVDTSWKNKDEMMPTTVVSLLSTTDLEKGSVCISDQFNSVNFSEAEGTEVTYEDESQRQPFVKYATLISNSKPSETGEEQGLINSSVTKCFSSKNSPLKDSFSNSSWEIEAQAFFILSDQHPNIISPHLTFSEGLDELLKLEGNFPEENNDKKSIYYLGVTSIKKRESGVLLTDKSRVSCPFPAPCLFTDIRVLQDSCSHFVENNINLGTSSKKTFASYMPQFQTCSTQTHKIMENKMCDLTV
As to the kind of experiment: flow cytometry on live HEK293-STAT3Luc-hLepR1 cells, AF647 anti-human IgG; average of 4 runs, SD 1.0.

Test [5] concerns the target T1, human LEPR-ECD-His. As to the kind of experiment: SPR (Biacore T200), antibody captured on Protein A/G chip, His-tagged LEPR-ECD as analyte, 1:1 fit; mean n=3, SD 7.1E-9.
Test [6] deals with T1, human LEPR-ECD-His. Briefly: SPR (Biacore T200), antibody captured on Protein A/G chip, His-tagged LEPR-ECD as analyte, 1:1 fit; mean n=3, SD 6.8E-9. In general terms: SPR reads the build-up and loss of mass on a sensor chip optically.
Test [7] has as its target T4, human LEPR, full length, on …. As to the kind of experiment: flow cytometry on live HEK293-STAT3Luc-hLepR1 cells, AF647 anti-human IgG; average of 4 runs, SD 7.1.

B1: Antibody A (antibody, human IgG1, kappa, L234A L235A)
heavy: EVQLLESGGGLVQPGGSLRLSCAASGFTFSSFAMSWVRQAPGKGLEWVSAISGSGGSTYSADSVRGRFTISRDNSKNTLYLQMNSLRAEDTAVYYCAKDQGDWDFLFDYWGQGTLVTVSSASTKGPSVFPLAPSSKSTSGGTAALGCLVKDYFPEPVTVSWNSGALTSGVHTFPAVLQSSGLYSLSSVVTVPSSSLGTQTYICNVNHKPSNTKVDKRVEPKSCDKTHTCPPCPAPEAAGGPSVFLFPPKPKDTLYITREPEVTCVVVSVSHEDPEVKFNWYVDGVEVHNAKTKPREEQYNSTYRVVSVLTVLHQDWLNGKEYKCKVSNKALPAPIEKTISKAKGQPREPQVYTLPPSREEMTKNQVSLTCLVKGFYPSDIAVEWESNGQPENNYKTTPPVLDSDGSFFLYSKLTVDKSRWQQGNVFSCSVMHEALHNHYTQKSLSLSPGK
light: DIQMTQSPSFLSASVGDRVTITCRASQGISSSLAWYQQKPGKAPKLLIYTASTLQSGVPSRFSGSGSGTEFTLTISSLQPEDFATYYCQQLIYYPFTFGQGTKVEIKRTVAAPSVFIFPPSDEQLKSGTASVVCLLNNFYPREAKVQWKVDNALQSGNSQESVTEQDSKDSTYSLSSTLTLSKADYEKHKVYACEVTHQGLSSPVTKSFNRGEC
notes: IgG1 mAb
The Kd is the free concentration of one partner at which half of the binding sites on the other are occupied at equilibrium, for simple one-to-one binding. One may read the EC50 as the concentration needed to bring the measured effect to its halfway point. Turning to B1, in the test with human LEPR-ECD-His [1], the affinity, expressed as Kd, was 0.02 µM. Also, the binding result in test [2] is recorded as “no binding (tested: 10 ug/ml)”. Moreover, the concentration giving a half-maximal response (EC50) in test [3] is 0.00074 µM.

B2: Antibody C (antibody, human IgG1, kappa, L234A L235A, V domains shown)
VH: EVQLLESGGGLVQPGGSLRLSCAASGFTFSSFAMSWVRQAPGKGLEWVSAISGSGGSTYSADSVRGRFTISRDNSKNTLYLQMNSLRAEDTAVYYCAKDQGDWDFLFDYWGQGTLVTVSS
VL: DIQMTQSPSFLSASVGDRVTITCRASQGISSSLAWYQQKPGKAPKLLIYTASTLQSGVPSRFSGSGSGTEFTLTISSLQPEDFATYYCQQLNYYPFSFGQGTKVEIKR
In test [4], B2 displayed a 50% effective concentration (EC50) of 0.00133 µM. In the test with human LEPR-ECD-His [5], this molecule yielded a Kd of 0.026 µM.

B3: Antibody B (antibody, human IgG1, kappa, L234A L235A, V domains shown)
VH: EVQLLESGGGLVQPGGSLRLSCAASGFTFSSFAMSWVRQAPGKGLEWVSAISGSGGSTYSADSVRGRFTISRDNSKNTLYLQMNSLRAEDTAVYYCAKDQGDWDFLFDYWGQGTLVTVSS
VL: DIQMTQSPSFLSASVGDRVTITCRVSQGISSSLAWYQQKPGKAPKLLIYTASTLQSGVPSRFSGSGSGTEFTLTISSLQPEDFATYYCQQLNYYPFTFGQGTKVEIKR
On to B3, for which binding with human LEPR-ECD-His [6] was put at a Kd of 0.022 µM. In test [7], the EC50 stood at 0.0136 µM.
